{"source": "patent EP4813403A1", "about": "(Hangzhou Zhongmeihuadong Pharmaceutical Co., Ltd., dated 2025)", "binders": {"B1": {"name": "P007 (peptide)", "peptide": "YXEGTXTSDYXIXLDKQAQAEFVKWLLKGGPSSGAPPPSK", "modifications": "Aib at 2; αMePhe at 6; Aib at 11; Aib at 13; K at position 24 ε-amino conjugated with ([2-(2-amino-ethoxy)-ethoxy]-acetyl)2-(γ-Glu)1-CO-(CH2)16-CO2H; C-terminal primary amide"}}, "biological_target": "T1, human GIP receptor (human, UniProt P48546 22-466)", "T1 sequence (looked up)": "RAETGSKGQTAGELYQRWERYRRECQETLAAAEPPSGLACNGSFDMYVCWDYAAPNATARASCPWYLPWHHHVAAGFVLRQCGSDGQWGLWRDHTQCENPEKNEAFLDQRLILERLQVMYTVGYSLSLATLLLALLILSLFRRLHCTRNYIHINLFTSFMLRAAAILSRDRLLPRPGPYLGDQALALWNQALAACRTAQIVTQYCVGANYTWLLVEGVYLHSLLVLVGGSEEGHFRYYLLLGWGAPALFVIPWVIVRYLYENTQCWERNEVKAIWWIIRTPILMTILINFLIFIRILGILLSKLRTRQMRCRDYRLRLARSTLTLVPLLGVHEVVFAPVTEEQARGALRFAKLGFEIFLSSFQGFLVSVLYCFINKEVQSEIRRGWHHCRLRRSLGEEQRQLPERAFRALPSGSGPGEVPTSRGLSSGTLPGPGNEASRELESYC", "test": "cell-based or functional assay", "data": [{"binder": "B1", "values": [{"measurement": "EC50 value (ratio: EC50 of endogenous ligand / EC50 of test compound), LANCE Ultra cAMP assay, HEK293/GIPR cells", "result": 1.15, "unit": "ratio"}]}]}
